Data on one variant can be found in IntAct's records for PubMed 11781565.

First the molecules themselves.
B1: Cell division cycle-related protein res1/sct1 (Schizosaccharomyces pombe (strain ATCC 38366 / 972)), P33520 (parent)
chain: MYNDQIHKITYSGVEVFEYTINGFPLMKRCHDNWLNATQILKIAELDKPRRTRILEKFAQKGLHEKIQGGCGKYQGTWVPSERAVELAHEYNVFDLIQPLIEYSGSAFMPMSTFTPQSNRKPTEAYRRNSPVKKSFSRPSHSLLYPYTSSNNMTSTSRMSGIHDALSLQSDFTRSPDMPSDSFTGSLHDIKASPFSSNNYAQSLLDYFLLPNTTQPPDFVYDRPSDWDVNAGIDEDGHTALHWAAAMGNLEMMHALLQAGANVVAVNYLQQTSLMRCVMFTMNYDLQTFEVVSELLQSAICMNDSFGQTVFHHIALLASSKSKMEAARYYMDILLQNLTATQSVDVAAQIINLQDDHGDTALLICARNGAKKCARLLLSFYASSSIPNNQGQYPTDFLSSKDMSFPENDDSPLNSKIEDNLIDNLKYPQSLDDHLSSKKPISYFSNKLTHQTLPNVFTQLSELSKCHEASLAEKQLTYNLAMEALEQTVRETETCQRLWNERTNNDENYLVNQREDLIHQCKKFLHTLKTARYYLETVQLHQLKKYVTYFSQIWSTDELADISETKNLVGHDTKTNRSSLSSKHEVDLFTAENEAAREKLVEQLCSLQAQRKQKINEILNLLSMGMYNTINTDQSGS
partner: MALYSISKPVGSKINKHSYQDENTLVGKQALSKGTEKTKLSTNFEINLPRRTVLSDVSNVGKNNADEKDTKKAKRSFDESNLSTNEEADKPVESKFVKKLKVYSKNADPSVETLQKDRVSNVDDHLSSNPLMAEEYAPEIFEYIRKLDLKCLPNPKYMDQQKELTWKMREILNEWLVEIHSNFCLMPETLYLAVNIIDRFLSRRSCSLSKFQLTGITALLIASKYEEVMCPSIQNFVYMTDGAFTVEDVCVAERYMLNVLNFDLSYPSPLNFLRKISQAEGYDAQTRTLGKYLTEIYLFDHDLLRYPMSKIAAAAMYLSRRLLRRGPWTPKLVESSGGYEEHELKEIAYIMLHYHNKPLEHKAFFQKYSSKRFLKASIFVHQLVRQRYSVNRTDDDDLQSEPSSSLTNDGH

The variants in one assay derive from B1. The note with it: with cg22_schpo cig2, P36630.
For S130A, the “effect of a mutation on the interaction” value is on record as “increasing interaction”.

The variants in the next assay derive from B1. The settings on record: with cg22_schpo cig2, P36630. The source holds these as a separate data set.
For S130A, the “effect of a mutation on the interaction” value is listed as “disrupting interaction”.
